The source of these data is patent publication US20130108613A1.

The target of this assay is monomeric synthetic human Aβ1-42 peptide (human). In words: cell-based or functional assay.

With “recombinant NIa (nuclear inclusion a) protease of Turnip mosaic virus (TuMV), purified from E. coli (from UniProt P89509 2117-2359) (enzyme)”, the reduction of monomeric Aβ level, densitometry of Western blot (6E10), 3 hrs at 25 °C, NIa pre-incubated with the cysteine protease inhibitor NEM was 33%.
